These results are taken from publication PMC9891822, “Cysteine Pathogenic Variants of PMM2 Are Sensitive to Environmental Stress with Loss of Structural Stability” (Oxidative Medicine and Cellular Longevity, 2023).

The data set concerns the molecule itself. In words: SEC; Superdex 75 10/300GL on an AKTA purifier; 100 uL of 0.2 mg/mL protein injected; 0.6 mL/min; 20 mM Na2HPO4, 150 mM NaCl, 1 mM EDTA; mass estimated from the elution volume.

Positions count from the first letter of the chain named. Names and notes keep the numbering of the source.

B1: Phosphomannomutase2 (PMM2) wild type (enzyme, human, UniProt O15305-1 1-246, looked up)
chain: MAAPGPALCLFDVDGTLTAPRQKITKEMDDFLQKLRQKIKIGVVGGSDFEKVQEQLGNDVVEKYDYVFPENGLVAYKDGKLLCRQNIQSHLGEALIQDLINYCLSYIAKIKLPKKRGTFIEFRNGMLNVSPIGRSCSQEERIEFYELDKKENIRQKFVADLRKEFAGKGLTFSIGGQISFDVFPDGWDKRYCLRHVENDGYKTIYFFGDKTMPGGNDHEIFTDPRTMGYSVTAPEDTRRICELLFS
notes: PMM2, human, open reading frame NM_000303, primers from the start codon to the stop codon; Cloned into pET28a(+) 'containing 6x His-tag'; also called PMM2-WT; WT; source: E. coli BL21 (DE3), purified (Ni-NTA, Superdex 75)
What is called stoichiometry N is the number of molecules, sites or subunits per partner or assembly. For B1, the “stoichiometry N” value is 2.

B2: PMM2 Cys241Ser (C241S) variant (enzyme, human, UniProt O15305-1 1-246, looked up)
chain: B1 chain with C241S
notes: PMM2, human, open reading frame NM_000303, with the pathogenic variant C241S (c. G722C) found in patients; Cloned into pET28a(+) 'containing 6x His-tag'; also called PMM2-C241S; source: E. coli BL21 (DE3), purified (Ni-NTA, Superdex 75)
With B2, the “stoichiometry N” value is 2.

B3: PMM2 Cys9Tyr (C9Y) variant (enzyme, human, UniProt O15305-1 1-246, looked up)
chain: B1 chain with C9Y
notes: PMM2, human, open reading frame NM_000303, with the pathogenic variant C9Y (c. G26A) found in patients; Cloned into pET28a(+) 'containing 6x His-tag'; also called PMM2-C9Y; source: E. coli BL21 (DE3), purified (Ni-NTA, Superdex 75)
B3: the “stoichiometry N” value was 2.
